The values below come from paper PMC5636791, “Non-canonical reader modules of BAZ1A promote recovery from DNA damage”.

The term Kd denotes a measure of binding affinity in units of concentration.

For series [1], the target named is T1, BAZ1A-PHD (human, UniProt Q9NRL2 1137-1202).
T1 sequence: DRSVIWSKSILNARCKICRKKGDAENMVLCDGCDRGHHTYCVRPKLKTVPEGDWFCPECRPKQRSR
Put plainly: BLI. As to conditions: n=6; value from figure text layer, assigned to the nucleosome panel; BLI: 50 mM Tris pH 7.5, 150 mM NaCl, 1 mM TCEP, 0.5% BSA, 0.01% Tween-20, 23 C; FP: 20 mM Tris pH 7.5, 150 mM NaCl, 1% glycerol, 0.5 mg/mL BSA, 0.05% Triton ….

The target in series [2] is T2, BAZ1A-PHD K1181A/K1183Y (KAKY) (human, UniProt Q9NRL2 1137-1202, K1181A;K1183Y).
T2 sequence: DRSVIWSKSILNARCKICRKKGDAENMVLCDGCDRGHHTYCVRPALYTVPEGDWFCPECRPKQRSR
Put plainly: BLI; BLI: 50 mM Tris pH 7.5, 150 mM NaCl, 1 mM TCEP, 0.5% BSA, 0.01% Tween-20, 23 C; FP: 20 mM Tris pH 7.5, 150 mM NaCl, 1% glycerol, 0.5 mg/mL BSA, 0.05% Triton X-100, RT, 50 nM probe; HDX: PBS pH 7.2, 5 C. Conditions: protein: recombinant; tags: His6-FLAG N-terminal, removed for BLI; label: 5' biotin; blunt. On the technique in general: In BLI a coated tip is dipped into the sample, and binding shifts an interference pattern.

A further series addresses T3, BAZ1B-PHD (UniProt Q9UIG0 1172-1237).
T3 sequence: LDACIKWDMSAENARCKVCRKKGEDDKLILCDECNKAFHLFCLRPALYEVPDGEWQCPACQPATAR
Described as above. Conditions: protein: recombinant; tags: His6-FLAG N-terminal, removed for BLI; label: 5' biotin; blunt.

Another series deals with T4, BAZ1B-PHD A1227K/Y1229K (UniProt Q9UIG0 1172-1237, A1217K;Y1219K).
T4 sequence: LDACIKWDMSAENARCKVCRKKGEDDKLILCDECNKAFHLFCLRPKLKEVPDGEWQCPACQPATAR
The description is as above. As to conditions: protein: recombinant; tags: His6-FLAG N-terminal, removed for BLI; label: 5' biotin; blunt.

The target in another series is T5, dAcf1-PHD(1) (Drosophila, UniProt Q9V9T4 1051-1115).
T5 sequence: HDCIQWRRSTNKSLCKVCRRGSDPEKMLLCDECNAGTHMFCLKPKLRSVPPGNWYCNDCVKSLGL
The series is described as above. Conditions: protein: recombinant; tags: His6-FLAG N-terminal, removed for BLI; label: 5' biotin; blunt.

Series [3] addresses T1, BAZ1A-PHD. Put plainly: BLI; n=10; BLI: 50 mM Tris pH 7.5, 150 mM NaCl, 1 mM TCEP, 0.5% BSA, 0.01% Tween-20, 23 C; FP: 20 mM Tris pH 7.5, 150 mM NaCl, 1% glycerol, 0.5 mg/mL BSA, 0.05% Triton X-100, RT, 50 nM probe; HDX: PBS pH 7.2, 5 C. As to conditions: protein: recombinant; tags: His6-FLAG N-terminal, removed (TEV/thrombin) for BLI; HDX construct tag-free with extra non-native residues; label: 5' biotin; blunt.

Series [4] addresses T1, BAZ1A-PHD. Briefly: HDX-MS; 30 uM protein, 100 uM DNA; C-terminal region protected, incl. K1181 and K1183; BLI: 50 mM Tris pH 7.5, 150 mM NaCl, 1 mM TCEP, 0.5% BSA, 0.01% Tween-20, 23 C; FP: 20 mM Tris pH 7.5, 150 mM NaCl, 1% glycerol, 0.5 mg/mL BSA, 0.05% Triton X-100, RT, 50 nM probe; HDX: PBS pH 7.2, 5 C. Conditions: protein: recombinant; tags: His6-FLAG N-terminal, removed (TEV/thrombin) for BLI; HDX construct tag-free with extra non-native residues; blunt.

Series [5] concerns the target T1, BAZ1A-PHD. Put plainly: competition; fluorescence polarization, 5.3 uM protein, 50 nM labeled probe; IC50 not in text; BLI: 50 mM Tris pH 7.5, 150 mM NaCl, 1 mM TCEP, 0.5% BSA, 0.01% Tween-20, 23 C; FP: 20 mM Tris pH 7.5, 150 mM NaCl, 1% glycerol, 0.5 mg/mL BSA, 0.05% Triton X-100, RT, 50 nM probe; HDX: PBS pH 7.2, 5 C. Conditions: protein: recombinant; tags: His6-FLAG N-terminal, removed (TEV/thrombin) for BLI; HDX construct tag-free with extra non-native residues; blunt. On the technique in general: Fluorescence polarisation rises when a labelled molecule tumbles more slowly, as on binding a larger partner.

For series [6], the target named is T1, BAZ1A-PHD. Briefly: BLI; identical results to scrambled sequence; BLI: 50 mM Tris pH 7.5, 150 mM NaCl, 1 mM TCEP, 0.5% BSA, 0.01% Tween-20, 23 C; FP: 20 mM Tris pH 7.5, 150 mM NaCl, 1% glycerol, 0.5 mg/mL BSA, 0.05% Triton X-100, RT, 50 nM probe; HDX: PBS pH 7.2, 5 C. Conditions: protein: recombinant; tags: His6-FLAG N-terminal, removed (TEV/thrombin) for BLI; HDX construct tag-free with extra non-native residues; label: 5' biotin; blunt.

“human biotinylated mononucleosome (EpiCypher)”: in the series with BAZ1A-PHD [1], the Kd was 48 µM.

B1: scrambled Widom-601 145 bp duplex (dsDNA)
DNA 1: CTTGCATCGATCCGATTGAACCATCGCTCGGTGACAGCTACGTGACTTAGTGTGCCCCATCGATCCAGTTCGATCACAGGCCACCTGAGTCGAGAGTATCGACACCCAGTGAACGATCGATCCGACTCGATCGCCTCACTGCTAG
DNA 2: CTAGCAGTGAGGCGATCGAGTCGGATCGATCGTTCACTGGGTGTCGATACTCTCGACTCAGGTGGCCTGTGATCGAACTGGATCGATGGGGCACACTAAGTCACGTAGCTGTCACCGAGCGATGGTTCAATCGGATCGATGCAAG
Take B1: the binding result (in series [2]; in the series with BAZ1B-PHD; with BAZ1B-PHD A1227K/Y1229K; with dAcf1-PHD(1)) was “no binding” throughout. The equilibrium dissociation constant (Kd) with BAZ1A-PHD [3] is 51 ± 9 µM.

B2: 20 bp HDX duplex (dsDNA)
DNA 1: ACTGACTCTGGACTACTGAG
DNA 2: CTCAGTAGTCCAGAGTCAGT
B2: the binding result with BAZ1A-PHD [4] is “binds”.

B3: Widom-601 145 bp duplex, unlabeled (dsDNA)
DNA 1: ATCAGAATCCCGGTGCCGAGGCCGCTCAATTGGTCGTAGACAGCTCTAGCACCGCTTAAACGCACGTACGCGCTGTCCCCCGCGTTTTAACCGCCAAGGGGATTACTCCCTAGTCTCCAGGCACGTGTCAGATATATACATCGAT
DNA 2: ATCGATGTATATATCTGACACGTGCCTGGAGACTAGGGAGTAATCCCCTTGGCGGTTAAAACGCGGGGGACAGCGCGTACGTGCGTTTAAGCGGTGCTAGAGCTGTCTACGACCAATTGAGCGGCCTCGGCACCGGGATTCTGAT
On to B3, for which the binding result with BAZ1A-PHD [5] is on record as “binds”.

B4: Widom-601 145 bp duplex, biotinylated (dsDNA)
DNA 1: ATCAGAATCCCGGTGCCGAGGCCGCTCAATTGGTCGTAGACAGCTCTAGCACCGCTTAAACGCACGTACGCGCTGTCCCCCGCGTTTTAACCGCCAAGGGGATTACTCCCTAGTCTCCAGGCACGTGTCAGATATATACATCGAT
DNA 2: ATCGATGTATATATCTGACACGTGCCTGGAGACTAGGGAGTAATCCCCTTGGCGGTTAAAACGCGGGGGACAGCGCGTACGTGCGTTTAAGCGGTGCTAGAGCTGTCTACGACCAATTGAGCGGCCTCGGCACCGGGATTCTGAT
Regarding B4, in the series with BAZ1A-PHD [6], the binding result is recorded as “binds”.
